The values that follow are results of earlier work, collected in patent publication US5654276A, “Peptides and compounds that bind to the IL-5 receptor” (Affymax Technologies N.V., priority 1995, dated 1997).

In this series the target is T1, human IL-5 receptor (Homo sapiens, UniProt Q01344).
T1 construct: host or cells: HL60 subclone induced towards eosinophil differentiation with sodium butyrate (endogenous receptor)
T1 sequence (Q01344 21-420): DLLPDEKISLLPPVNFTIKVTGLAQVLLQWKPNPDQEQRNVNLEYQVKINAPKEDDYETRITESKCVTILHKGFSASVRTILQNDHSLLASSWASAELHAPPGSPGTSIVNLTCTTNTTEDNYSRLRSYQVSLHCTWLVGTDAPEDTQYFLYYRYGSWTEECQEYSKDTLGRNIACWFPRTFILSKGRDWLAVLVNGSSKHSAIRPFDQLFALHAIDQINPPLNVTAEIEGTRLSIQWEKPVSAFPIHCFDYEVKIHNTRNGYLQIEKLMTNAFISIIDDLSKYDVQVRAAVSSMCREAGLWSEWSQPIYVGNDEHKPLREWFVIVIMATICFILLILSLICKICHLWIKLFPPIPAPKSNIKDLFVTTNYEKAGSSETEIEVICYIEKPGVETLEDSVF
T1 sequence (P32927 17-897 partner): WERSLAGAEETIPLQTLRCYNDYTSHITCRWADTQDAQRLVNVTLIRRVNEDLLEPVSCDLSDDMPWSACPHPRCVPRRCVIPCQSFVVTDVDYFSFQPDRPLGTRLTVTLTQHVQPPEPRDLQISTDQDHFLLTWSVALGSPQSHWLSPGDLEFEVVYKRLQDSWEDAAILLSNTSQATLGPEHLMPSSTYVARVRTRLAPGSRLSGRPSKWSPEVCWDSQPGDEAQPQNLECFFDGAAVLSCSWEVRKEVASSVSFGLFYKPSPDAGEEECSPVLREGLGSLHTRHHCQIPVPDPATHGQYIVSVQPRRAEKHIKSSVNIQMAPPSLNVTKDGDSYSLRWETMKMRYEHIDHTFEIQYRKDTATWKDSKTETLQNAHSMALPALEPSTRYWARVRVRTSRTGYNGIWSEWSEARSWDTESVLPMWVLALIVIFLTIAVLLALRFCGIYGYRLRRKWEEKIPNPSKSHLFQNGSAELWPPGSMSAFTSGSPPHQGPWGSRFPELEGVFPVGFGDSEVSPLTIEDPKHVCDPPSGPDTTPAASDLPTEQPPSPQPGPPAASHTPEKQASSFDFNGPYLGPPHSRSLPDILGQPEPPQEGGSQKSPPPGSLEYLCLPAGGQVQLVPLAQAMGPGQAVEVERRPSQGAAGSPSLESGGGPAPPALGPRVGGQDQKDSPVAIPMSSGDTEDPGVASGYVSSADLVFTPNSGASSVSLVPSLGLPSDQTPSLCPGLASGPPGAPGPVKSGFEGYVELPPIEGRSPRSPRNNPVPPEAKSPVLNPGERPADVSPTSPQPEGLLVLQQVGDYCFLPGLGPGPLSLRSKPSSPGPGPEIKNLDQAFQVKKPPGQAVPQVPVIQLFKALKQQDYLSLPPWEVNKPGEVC
Conditions: HL60 subclone, eosinophilic differentiation initiated with sodium butyrate; read-out: Kd of IL-5 binding sites.

What is called Kd is a measure of binding affinity in units of concentration. For “IL-5: lymphokine secreted by T cells and mast cells having biological activities on B cells and eosinophils”, the Kd was 0.03 nM.
